Measured values published in patent US20200071424A1 (SHIONOGI, published 2020).

Key:
[1] = target: T1, human [1-305]-mouse chimeric EL (human; mouse, UniProt Q9WVG5 306-500); test: cell-based or functional assay
T1 sequence: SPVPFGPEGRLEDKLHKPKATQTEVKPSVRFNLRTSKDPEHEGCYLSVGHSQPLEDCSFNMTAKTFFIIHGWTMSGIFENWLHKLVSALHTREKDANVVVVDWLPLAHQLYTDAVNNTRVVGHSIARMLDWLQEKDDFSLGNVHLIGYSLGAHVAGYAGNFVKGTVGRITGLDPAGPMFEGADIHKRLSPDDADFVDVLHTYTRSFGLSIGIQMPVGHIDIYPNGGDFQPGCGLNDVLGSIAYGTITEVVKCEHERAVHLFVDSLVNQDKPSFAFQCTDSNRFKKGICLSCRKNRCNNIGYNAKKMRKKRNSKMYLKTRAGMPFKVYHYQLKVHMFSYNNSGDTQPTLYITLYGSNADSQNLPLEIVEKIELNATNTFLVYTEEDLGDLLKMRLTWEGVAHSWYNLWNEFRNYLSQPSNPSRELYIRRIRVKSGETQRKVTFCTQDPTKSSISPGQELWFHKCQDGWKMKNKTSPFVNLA

[2] = target: T2, human EL (vascular endothelial lipase) (human, UniProt Q9Y5X9 21-500); test: cell-based or functional assay
T2 sequence: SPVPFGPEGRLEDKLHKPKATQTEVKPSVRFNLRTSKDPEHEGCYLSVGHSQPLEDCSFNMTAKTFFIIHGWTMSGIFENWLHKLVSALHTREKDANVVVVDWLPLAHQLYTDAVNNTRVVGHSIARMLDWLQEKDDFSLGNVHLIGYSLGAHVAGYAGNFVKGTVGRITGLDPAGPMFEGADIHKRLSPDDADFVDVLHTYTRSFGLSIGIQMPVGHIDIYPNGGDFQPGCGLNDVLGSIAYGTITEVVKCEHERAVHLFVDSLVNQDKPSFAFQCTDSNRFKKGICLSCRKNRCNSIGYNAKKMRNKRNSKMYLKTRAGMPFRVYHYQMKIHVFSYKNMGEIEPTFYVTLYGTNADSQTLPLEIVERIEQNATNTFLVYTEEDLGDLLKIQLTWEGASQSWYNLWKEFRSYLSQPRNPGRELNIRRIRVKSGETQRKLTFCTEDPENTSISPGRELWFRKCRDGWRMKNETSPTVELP

[3] = target: T1, human [1-305]-mouse chimeric EL; test: Biacore; EL captured by anti-C2-tag Ab; bivalent fit
Procedure: (§1) The binding affinities of anti-EL antibodies were measured using Biacore. […] Then, anti-EL humanized antibodies were added and the binding affinities were calculated by bivalent fitting of BIAevaluation software.

cynomolgus monkey EL [4] = target: T3, cynomolgus monkey EL (cynomolgus monkey); test: as above
T3 construct: Heparin extract; also called cynomolgus EL; Cynomolgus EL
Procedure: as §1

[5] = target: T4, human HL (hepatic lipase) (human, UniProt P11150 23-499); test: cell-based or functional assay
T4 sequence (looked up): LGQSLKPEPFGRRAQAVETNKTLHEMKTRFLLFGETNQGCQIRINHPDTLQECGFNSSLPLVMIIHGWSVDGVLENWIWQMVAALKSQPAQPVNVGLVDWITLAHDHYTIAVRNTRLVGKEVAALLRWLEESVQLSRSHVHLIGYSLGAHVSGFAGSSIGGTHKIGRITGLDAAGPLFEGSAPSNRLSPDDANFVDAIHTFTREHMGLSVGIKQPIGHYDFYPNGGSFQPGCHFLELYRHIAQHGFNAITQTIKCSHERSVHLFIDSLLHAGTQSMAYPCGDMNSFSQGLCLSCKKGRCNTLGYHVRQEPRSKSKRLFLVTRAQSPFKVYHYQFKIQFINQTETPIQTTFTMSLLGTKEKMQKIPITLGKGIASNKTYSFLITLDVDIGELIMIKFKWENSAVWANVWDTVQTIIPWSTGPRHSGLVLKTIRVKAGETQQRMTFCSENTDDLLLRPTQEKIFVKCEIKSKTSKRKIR

[6] = target: T5, human LPL (lipoprotein lipase) (human, UniProt P06858 28-475); test: cell-based or functional assay
T5 sequence (looked up): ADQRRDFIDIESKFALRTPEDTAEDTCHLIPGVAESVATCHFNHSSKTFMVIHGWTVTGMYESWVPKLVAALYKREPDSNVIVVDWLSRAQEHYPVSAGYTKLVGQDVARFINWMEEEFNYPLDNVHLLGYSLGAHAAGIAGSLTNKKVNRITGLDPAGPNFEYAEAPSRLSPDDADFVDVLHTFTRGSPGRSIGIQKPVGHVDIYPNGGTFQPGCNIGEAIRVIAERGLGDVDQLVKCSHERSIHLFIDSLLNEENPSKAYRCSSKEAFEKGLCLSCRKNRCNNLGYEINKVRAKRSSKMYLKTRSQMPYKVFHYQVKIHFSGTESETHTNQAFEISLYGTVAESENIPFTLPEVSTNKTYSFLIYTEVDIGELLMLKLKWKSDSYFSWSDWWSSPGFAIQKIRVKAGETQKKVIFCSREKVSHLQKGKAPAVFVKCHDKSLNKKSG

cynomolgus monkey EL [7] = target: T3, cynomolgus monkey EL; test: cell-based or functional assay
baboon EL = baboon EL (baboon); test: cell-based or functional assay
mouse EL = target: T6, mouse EL (mouse, UniProt Q9WVG5 21-500); test: cell-based or functional assay
T6 sequence (looked up): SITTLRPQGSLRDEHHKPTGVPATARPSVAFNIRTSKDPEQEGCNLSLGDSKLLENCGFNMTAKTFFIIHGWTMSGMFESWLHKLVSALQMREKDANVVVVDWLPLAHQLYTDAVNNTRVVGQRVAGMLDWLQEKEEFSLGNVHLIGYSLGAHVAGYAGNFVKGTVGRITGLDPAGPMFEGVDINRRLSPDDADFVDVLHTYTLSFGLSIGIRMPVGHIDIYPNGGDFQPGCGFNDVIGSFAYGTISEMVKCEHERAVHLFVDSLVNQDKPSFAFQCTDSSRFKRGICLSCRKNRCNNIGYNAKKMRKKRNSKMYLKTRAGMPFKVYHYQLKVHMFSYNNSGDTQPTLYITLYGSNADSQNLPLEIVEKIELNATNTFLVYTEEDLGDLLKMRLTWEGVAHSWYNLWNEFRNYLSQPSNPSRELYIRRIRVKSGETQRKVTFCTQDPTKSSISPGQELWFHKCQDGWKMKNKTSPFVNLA

Binder | Neutralizing activity IC50 [1] | Neutralizing activity IC50 [2] | Kd [3] | koff [3] | kon [3] | Kd (cynomolgus monkey EL [4]) | koff (cynomolgus monkey EL [4]) | kon (cynomolgus monkey EL [4]) | Neutralizing activity IC50 [5] | Neutralizing activity IC50 [6] | Neutralizing activity IC50 (cynomolgus monkey EL [7]) | Neutralizing activity IC50 (baboon EL) | Neutralizing activity IC50 (mouse EL)
h55A1-S1 (antibody, V domains shown, humanized) VH: QVQLVQSGSELKKPGASVKVSCKASGYTFTNYGMNWVRQAPGQGLEWMGWINTYSGVPTYAGDFKGRFVFSLDTSVSTAYLQISSLKAEDTAVYYCARRGYYGRRYFDVWGKGTTVTVSS VL: DIVLTQSPASLAVSPGQRATITCKASQSVDYDVDSYMHWYQQKPGQPPKLLIYAASNLASGVPARFSGSGSGTDFTLTINPVEANDTANYYCQQTIEDPPTFGGGTKVEIK | 2.2 nM | 3.9 nM | 31 nM | 0.00086 s⁻¹ | 27000 M⁻¹ s⁻¹ | 0.59 nM | 0.00026 s⁻¹ | 440000 M⁻¹ s⁻¹ | > 1800 nM | > 1800 nM | 1.6 nM | – | –
h16B3-S2 (antibody, V domains shown, humanized) VH: EVQLVESGGGLVQPGGSLRLSCAASGFTFSGYTMSWVRQAPGKGLEWVSEISFARDRAFYPDTVKGRFTISRDNSKNTLYLQMNSLRAEDTAVYYCARLGGRNHDYWYFDVWGQGTTVTVSS VL: DIVMTQSPDSLAVSLGERATINCRASESVEYYGTSLMQWYQQKPGQPPKLLIYAASNVESGVPDRFSGSGSGTDFTLTISSLQAEDVAVYYCQQSWKVPFTFGQGTKLEIK | 5.3 nM | 4.6 nM | 9.3 nM | 0.00022 s⁻¹ | 24000 M⁻¹ s⁻¹ | 2 nM | 0.0001 s⁻¹ | 51000 M⁻¹ s⁻¹ | > 400 nM | > 400 nM | 1.9 nM | – | –
h16F6-S5 (antibody, V domains shown) VH: QVQLVQSGAEVKKPGASVKVSCKASGYTFTTYWIAWVRQAPGQGLEWMGEILPGSAKTKYNKKFKGRVTMTRDTSTSTVYMELSSLRSEDTAVYYCAVYDYGADYWGQGTTVTVSS VL: DIQMTQSPSSLSASVGDRVSITCKASQDVYTAVAWYQQKPGKSPKLLIYSASYRFTGVPSRFTGSGAGTDFTFTISSLQPEDFATYYCQQHYSIPRTFGGGTKVEIK | – | – | – | – | – | – | – | – | – | – | – | 2 nM | 2.1 nM
h23H8-S2 (antibody, V domains shown) VH: QVQLVQSGAEVKKPGASVKVSCKASGYTFTDNTIHWVRQAPGQGLEWMGHINPYYGGTNNNEKFKDRVTMTRDTSISTAYMELSRLRSDDTAVYYCARKGIYYSSPFDYWGQGTTVTVSS VL: DIQMTQSPSSLSASVGDRVTITCRASQDINNYLNWYQQKPGKAPKLLISYTSKLHSGVPSRFSGSGSGTDFTLTISSLQREDFATYYCQQGNTLPFTFGQGTKLEIK | 1.7 nM | 4.5 nM | – | – | – | – | – | – | > 400 nM | > 400 nM | – | – | –
h53A11-S1 (antibody, V domains shown) VH: QVQLVQSGAEVKKPGASVKVSCKASGYTFTDYTMHWVRQAPGQRLEWMGGINPYYGGTTYNEKFKDRVTITRDTSASTAYMELSSLRSEDTAVYYCAKGDYYGGSYNYWGQGTTVTVSS VL: EIVMTQSLATLSVSPGERATLSCRASQDISNSLHWYQQKPGQAPRLLIKYASQSISGIPARFSGSGSGTEFTLTISSLQSEDFAVYYCQQSNSWPYTFGQGTKLEIK | 2.1 nM | 9.7 nM | – | – | – | – | – | – | > 400 nM | > 400 nM | – | – | –
h13B3-S1 (antibody, V domains shown) VH: QVQLVQSGAEVKKPGASVKVSCKASGYTFTEYTMHWVRQAPGQGLEWMGSINPYYGGTSYNEKFKDRVTMTRDTSTSTVYMELSSLRSEDTAVYYCARYGNYVGYFDYWGQGTTVTVSS VL: EIVLTQSPGTLSLSPGERATLSCRASSSVHYMYWYQQKPGQAPRLLIYYTSNLAPGIPDRFSGSGSGTDFTLTISRLEPEDFAVYYCQQFTSSPYTFGGGTKVEIK | 3 nM | 2.3 nM | – | – | – | – | – | – | > 400 nM | > 400 nM | – | – | –
